Patent US20230242651A1 (published 2023)
Substitutions are numbered along the chain they refer to.

What was measured:
[1] = target: T1, human interleukin-23 receptor (IL23R) (human, UniProt Q5VWK5 24-355, limits assumed); experiment: SPR, scFv
T1 construct: also called human IL23R
T1 sequence (looked up): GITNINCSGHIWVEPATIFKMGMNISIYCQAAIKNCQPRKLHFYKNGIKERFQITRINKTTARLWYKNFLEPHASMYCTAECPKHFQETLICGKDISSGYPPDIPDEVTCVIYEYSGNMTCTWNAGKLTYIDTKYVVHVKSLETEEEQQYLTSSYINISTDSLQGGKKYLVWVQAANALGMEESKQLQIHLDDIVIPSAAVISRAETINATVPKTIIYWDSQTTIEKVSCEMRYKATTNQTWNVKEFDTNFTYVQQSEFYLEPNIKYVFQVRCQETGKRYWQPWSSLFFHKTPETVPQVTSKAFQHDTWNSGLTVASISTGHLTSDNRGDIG
Method in brief: (§1)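 Binding to human IL23R was assessed by surface plasmon resonance, with values given as rate constants and dissociation constant or as a λ-capped over uncapped dissociation-constant ratio. The binders were humanized rabbit variable domains in single-chain variable fragment format on consensus germline framework pairs, with or without a λ-cap. Each was produced in E. coli as inclusion bodies and refolded after solubilization.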

[2] = target: T1, human interleukin-23 receptor (IL23R); experiment: SPR, scFv (summary table)
Method in brief: as §1

[3] = target: T1, human interleukin-23 receptor (IL23R); experiment: SPR; KD of the capped scFv over KD of its uncapped counterpart
Method in brief: as §1

[4] = target: T2, human TNF (human, UniProt P01375 77-233); experiment: SPR, scFv
T2 sequence (P01375 77-233 limits assumed): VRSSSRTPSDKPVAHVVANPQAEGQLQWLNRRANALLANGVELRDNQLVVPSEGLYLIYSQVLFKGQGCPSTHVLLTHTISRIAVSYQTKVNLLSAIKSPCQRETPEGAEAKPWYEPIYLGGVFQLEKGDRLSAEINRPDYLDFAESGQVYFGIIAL

[5] = target: T2, human TNF; experiment: SPR, scFv; footnote: interference with SPR measurement

B1: Vκ3/VH2 consensus λ-capped, human IL23R specific scFv (scFv)
scFv: DIVLTQSPATLSLSPGERATLSCQASENIYSFLAWYQQKPGQAPRLLIYSASKLAAGVPARFSGSGSGTDFTLTISSLEPEDFAVYYCQQTNRYSNPDIYNVFGGGTKLTVLGGGGGSGGGGSGGGGSGGGGSQVQLKESGPALVKPTQTLTLTCTFSGIDFNSNYYMCWIRQPPGKALEWLACIYVGSHVNTYYANWAKGRLTISKDTSKNQVVLTMTNMDPVDTATYYCATSGSSVLYFKFWGQGTLVTVSS
notes: scFv VL-linker-VH, made in E. coli; also called Vκ3VH2 capped
Question: For B1, which Kd [1] is on record?
Answer: The Kd was 0.0916 nM.

Question: What about the koff [1] of the same binder?
Answer: Its koff is 0.000152 s⁻¹.

Question: And the kon [1]?
Answer: The kon was 1.66e+06 M⁻¹ s⁻¹.

Question: What about the Kd [2] of the same binder?
Answer: The Kd was 0.0916 nM.

Question: And the “Ratio (capped/uncapped) of KD” value [3]?
Answer: Its value is 0.2.

B2: VK1/VH3 consensus λ-capped, TNF-specific scFv (scFv)
scFv: DIQMTQSPSSLSASVGDRVTITCQASQSISDWLAWYQQKPGKAPKLLIYGASRLASGVPSRFSGSGSGTDFTLTISSLQPEDFATYYCQQGWSDSYVDNLFGGGTKLTVLGGGGGSGGGGSGGGGSGGGGSEVQLVESGGGLVQPGGSLRLSCAASGFSLSSGAMSWVRQAPGKGLEWVSVIISSGATYYASWAKGRFTISRDNSKNTLYLQMNSLRAEDTAVYYCARGGPDDSNSMGTFDPWGQGTLVTVSS
notes: also called capped Vκ1/VH3 consensus molecule (TNF CDRs)
Question: Which Kd [4] does the source give for B2 here?
Answer: Its Kd is 0.225 nM.

Question: What about the koff [4] of the same binder?
Answer: Its koff is 9.41e-05 s⁻¹.

Question: What about the kon [4] of the same binder?
Answer: The kon was 419000 M⁻¹ s⁻¹.

B3: VK1/VH3 consensus uncapped, TNF-specific scFv (scFv)
scFv: B2 scFv with G103Q, L107V, T108E, V109I, L110K, G111R
notes: also called control molecule (Vκ1/VH3 consensus)
Question: Which results are given for B3?
Answer: Kd [4]: 0.265 nM; koff [4]: 0.000105 s⁻¹; kon [4]: 395000 M⁻¹ s⁻¹

B4: Vκ3/VH1A consensus λ-capped, human IL23R specific scFv (scFv)
scFv: DIVLTQSPATLSLSPGERATLSCQASENIYSFLAWYQQKPGQAPRLLIYSASKLAAGVPARFSGSGSGTDFTLTISSLEPEDFAVYYCQQTNRYSNPDIYNVFGGGTKLTVLGGGGGSGGGGSGGGGSGGGGSQVQLVQSGAEVKKPGSSVKVSCKASGIDFNSNYYMCWVRQAPGQGLEWMGCIYVGSHVNTYYANWAKGRVTITADESTSTAYMELSSLRSEDTAVYYCATSGSSVLYFKFWGQGTLVTVSS
notes: scFv VL-linker-VH, made in E. coli; also called Vκ3VH1A capped
Question: Which results are given for B4?
Answer: Kd [1]: 0.585 nM; koff [1]: 0.00117 s⁻¹; kon [1]: 2e+06 M⁻¹ s⁻¹; Kd [2]: 0.585 nM; Ratio (capped/uncapped) of KD [3]: 2

B5: Vκ3/VH1B consensus λ-capped, human IL23R specific scFv (scFv)
scFv: B4 scFv with S149A, I205M, A207R, E209T, T211I
notes: scFv VL-linker-VH, made in E. coli; also called Vκ3VH1B capped
Question: Which results are given for B5?
Answer: Kd [1]: 0.181 nM; koff [1]: 0.000506 s⁻¹; kon [1]: 2.8e+06 M⁻¹ s⁻¹; Kd [2]: 0.181 nM; Ratio (capped/uncapped) of KD [3]: 0.4

B6: VK3/VH3 consensus λ-capped, TNF-specific scFv (scFv)
scFv: DIVLTQSPATLSLSPGERATLSCQASQSISDWLAWYQQKPGQAPRLLIYGASRLASGVPARFSGSGSGTDFTLTISSLEPEDFAVYYCQQGWSDSYVDNLFGGGTKLTVLGGGGGSGGGGSGGGGSGGGGSEVQLVESGGGLVQPGGSLRLSCAASGFSLSSGAMSWVRQAPGKGLEWVSVIISSGATYYASWAKGRFTISRDNSKNTLYLQMNSLRAEDTAVYYCARGGPDDSNSMGTFDPWGQGTLVTVSS
Question: Which results are given for B6?
Answer: Kd [5]: 1.82 nM; koff [5]: 0.000529 s⁻¹; kon [5]: 290000 M⁻¹ s⁻¹
